Measurements taken from US20250163167A1 (SYNTHEKINE, published 2025).

T1: human IL-10 receptor (hIL-10R alpha and beta chains) on HEK-Blue IL-10 reporter cells (human, UniProt Q13651 22-578; Q08334 20-325)
T1 sequence 1: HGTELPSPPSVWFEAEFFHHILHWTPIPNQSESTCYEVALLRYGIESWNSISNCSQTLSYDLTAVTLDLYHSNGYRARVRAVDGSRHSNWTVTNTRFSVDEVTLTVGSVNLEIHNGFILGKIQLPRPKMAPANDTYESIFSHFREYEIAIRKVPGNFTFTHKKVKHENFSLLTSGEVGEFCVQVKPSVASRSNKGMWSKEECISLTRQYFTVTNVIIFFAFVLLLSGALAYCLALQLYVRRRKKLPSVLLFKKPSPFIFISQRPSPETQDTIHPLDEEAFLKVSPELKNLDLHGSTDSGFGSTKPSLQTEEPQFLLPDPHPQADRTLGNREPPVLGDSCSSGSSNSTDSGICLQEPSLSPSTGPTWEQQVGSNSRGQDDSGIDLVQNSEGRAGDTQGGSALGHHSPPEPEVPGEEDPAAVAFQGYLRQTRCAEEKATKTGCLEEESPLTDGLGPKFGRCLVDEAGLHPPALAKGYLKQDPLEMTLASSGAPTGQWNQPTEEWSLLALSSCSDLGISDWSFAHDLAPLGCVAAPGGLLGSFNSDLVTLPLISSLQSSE
T1 sequence 2: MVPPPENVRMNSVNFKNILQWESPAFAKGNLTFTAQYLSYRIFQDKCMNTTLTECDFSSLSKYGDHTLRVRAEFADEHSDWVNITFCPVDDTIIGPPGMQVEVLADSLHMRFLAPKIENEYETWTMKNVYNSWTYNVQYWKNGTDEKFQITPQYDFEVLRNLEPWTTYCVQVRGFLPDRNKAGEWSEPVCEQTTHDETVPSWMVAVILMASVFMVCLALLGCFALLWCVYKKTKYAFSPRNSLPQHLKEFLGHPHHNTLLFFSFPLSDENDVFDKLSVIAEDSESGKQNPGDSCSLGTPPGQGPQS

B1: IL10R binding molecule of SEQ ID NO: 331 (bispecific antibody)
chain: QVQLQESGGGSVQAGGSLRLSCTVSRYTASVNYMGWFRQAPGKEREGVATIFTGAGTTYYANSVKGRFTISRDNAKNTAYLQMNSLKPEDTAIYYCAVDFRGGLLYRPAYEYTYRGQGTQVTVSSGGGSQVQLQESGGGSVQAGGSLRLSCGASGYTYSSYCMGWFRQVPGKEREGVAVIDSDGSTSYADSVKGRFTISKDNGKNTLYLQMNSLKPEDTAMYYCAADLGHYRPPCGVLYLGMDYWGKGTQVTVSSASHHHHHH
B2: IL10R binding molecule of SEQ ID NO: 339 (bispecific antibody)
chain: QVQLQESGGGSVEAGGSLRLSCAASGYTHSSYCMGWFRQAPGKEREGVAAIDVDGSTTYADSVKGRFTISKDNAKNTLYLQMNSLKPEDTGMYYCAAEFADCSSNYFLPPGAVRYWGQGTQVTVSSGGGSQVQLQESGGGSVQAGGSLRLSCAASGYSNCSYDMTWYRQAPGKEREFVSAIHSDGSTRYADSVKGRFFISQDNAKNTVYLQMNSLKPEDTAMYYCKTDPLHCRAHGGSWYSVRANYWGQGTQVTVSSASHHHHHH
B3: IL10R binding molecule of SEQ ID NO: 336 (bispecific antibody)
chain: QVQLQESGGGSVEAGGSLRLSCAASGYTHSSYCMGWFRQAPGKEREGVAAIDVDGSTTYADSVKGRFTISKDNAKNTLYLQMNSLKPEDTGMYYCAAEFADCSSNYFLPPGAVRYWGQGTQVTVSSGGGSQVQLQESGGGSVQAGGSLRLSCAVSGYAYSTYCMGWFRQAPGKEREGVAAIDSGGSTSYADSVKGRFTISKDNAKNTLYLRMNSLKPEDTAMYYCAAVPPPPDGGSCLFLGPEIKVSKADFRYWGQGTQVTVSSASHHHHHH
B4: IL10R binding molecule of SEQ ID NO: 334 (bispecific antibody)
chain: QVQLQESGGGSVEAGGSLRLSCAASGYTHSSYCMGWFRQAPGKEREGVAAIDVDGSTTYADSVKGRFTISKDNAKNTLYLQMNSLKPEDTGMYYCAAEFADCSSNYFLPPGAVRYWGQGTQVTVSSGGGSQVQLQESGGGSVQAGGSLRLSCAASRFTYSSYCMGWFRQAPGKEREGVASIDSDGSTSYTDSVKGRFTISKDNAKNTLYLQMNSLKPEDTAMYYCALDLMSTVVPGFCGFLLSAGMDYWGKGTQVTVSSASHHHHHH
B5: IL10R binding molecule of SEQ ID NO: 338 (bispecific antibody)
chain: QVQLQESGGGSVEAGGSLRLSCAASGYTHSSYCMGWFRQAPGKEREGVAAIDVDGSTTYADSVKGRFTISKDNAKNTLYLQMNSLKPEDTGMYYCAAEFADCSSNYFLPPGAVRYWGQGTQVTVSSGGGSQVQLQESGGGSVQAGGSLRLSCGASGYTYSSYCMGWFRQVPGKEREGVAVIDSDGSTSYADSVKGRFTISKDNGKNTLYLQMNSLKPEDTAMYYCAADLGHYRPPCGVLYLGMDYWGKGTQVTVSSASHHHHHH
B6: IL10R binding molecule of SEQ ID NO: 332 (bispecific antibody)
chain: QVQLQESGGGSVQAGGSLRLSCTVSRYTASVNYMGWFRQAPGKEREGVATIFTGAGTTYYANSVKGRFTISRDNAKNTAYLQMNSLKPEDTAIYYCAVDFRGGLLYRPAYEYTYRGQGTQVTVSSGGGSQVQLQESGGGSVQAGGSLRLSCAASGYSNCSYDMTWYRQAPGKEREFVSAIHSDGSTRYADSVKGRFFISQDNAKNTVYLQMNSLKPEDTAMYYCKTDPLHCRAHGGSWYSVRANYWGQGTQVTVSSASHHHHHH
B7: IL10R binding molecule of SEQ ID NO: 337 (bispecific antibody)
chain: QVQLQESGGGSVEAGGSLRLSCAASGYTHSSYCMGWFRQAPGKEREGVAAIDVDGSTTYADSVKGRFTISKDNAKNTLYLQMNSLKPEDTGMYYCAAEFADCSSNYFLPPGAVRYWGQGTQVTVSSGGGSQVQLQESGGGSVQAGGSLRLSCTVSGYTYSSNCMGWFRQAPGKEREGVATIYTGGGNTYYADSVKGRFTISQDNAKNTVYLQMNNLKPEDTAMYYCAAEPLSRVYGGSCPTPTFDYWGQGTQVTVSSASHHHHHH
B8: IL10R binding molecule of SEQ ID NO: 335 (bispecific antibody)
chain: QVQLQESGGGSVEAGGSLRLSCAASGYTHSSYCMGWFRQAPGKEREGVAAIDVDGSTTYADSVKGRFTISKDNAKNTLYLQMNSLKPEDTGMYYCAAEFADCSSNYFLPPGAVRYWGQGTQVTVSSGGGSQVQLQESGGGSVQAGGSLRLSCAASGYTYSMYCMGWFRQAPGKEREGVAQINSDGSTSYADSVKGRFTISKDNAKNTLYLQMNSLKPEDTAMYYCAADSRVYGGSWYERLCGPYTYEYNYWGQGTQVTVSSASHHHHHH
B9: IL10R binding molecule of SEQ ID NO: 330 (bispecific antibody)
chain: QVQLQESGGGSVQAGGSLRLSCTVSRYTASVNYMGWFRQAPGKEREGVATIFTGAGTTYYANSVKGRFTISRDNAKNTAYLQMNSLKPEDTAIYYCAVDFRGGLLYRPAYEYTYRGQGTQVTVSSGGGSQVQLQESGGGSVQAGGSLRLSCTVSGYTYSSNCMGWFRQAPGKEREGVATIYTGGGNTYYADSVKGRFTISQDNAKNTVYLQMNNLKPEDTAMYYCAAEPLSRVYGGSCPTPTFDYWGQGTQVTVSSASHHHHHH
B10: IL10R binding molecule of SEQ ID NO: 262 (bispecific antibody)
chain: QVQLQESGGGSVQAGGSLRLSCAASRYLYSIDYMAWFRQSPGKEREPVAVIYTASGATFYPDSVKGRFTISQDNAKMTVYLQMNSLKSEDTAMYYCAAVRKTDSYLFDAQSFTYWGQGTQVTVSSGGGSQVQLQESGGGSVQTGGSLRLSCAASGYTYLRGCMGWFRQAPGKEREGVAVMDVVGDRRSYIDSVKGRFTISRDNAANSVYLQMDNLKPEDTAMYYCTAGPNCVGWRSGLDYWGQGTQVTVSSASHHHHHH
B11: IL10R binding molecule of SEQ ID NO: 263 (bispecific antibody)
chain: QVQLQESGGGSVQAGGSLRLSCAASRFTYSSYCMGWFRQAPGKEREGVASIDSDGSTSYTDSVKGRFTISKDNAKNTLYLQMNSLKPEDTAMYYCALDLMSTVVPGFCGFLLSAGMDYWGKGTQVTVSSGGGSQVQLQESGGGSVQAGGSLRLSCAASGYTYSSGCMGWFRQAPGKEREAVAAINSDGSTSYADSVKGRFTISKDNAKNTLYLQMNSLKPEDTAMYYCAAEPYCSGGYPRWSVAEFGYWGQGTQVTVSSASHHHHHH
B12: IL10R binding molecule of SEQ ID NO: 333 (bispecific antibody)
chain: QVQLQESGGGSVEAGGSLRLSCAASGYTHSSYCMGWFRQAPGKEREGVAAIDVDGSTTYADSVKGRFTISKDNAKNTLYLQMNSLKPEDTGMYYCAAEFADCSSNYFLPPGAVRYWGQGTQVTVSSGGGSQVQLQESGGGSVQAGGSLRLSCAASRYLYSIDYMAWFRQSPGKEREPVAVIYTASGATFYPDSVKGRFTISQDNAKMTVYLQMNSLKSEDTAMYYCAAVRKTDSYLFDAQSFTYWGQGTQVTVSSASHHHHHH

Each binder was assayed against T1, human IL-10 receptor (hIL-10R alpha and …) (assay: cell-based or functional assay).

Binder	Abs 630 (25 nM)	Abs 630 (100 nM)
B1	0.5 Abs 630	0.41 Abs 630
B2	0.49 Abs 630	0.42 Abs 630
B3	0.54 Abs 630	0.45 Abs 630
B4	1.43 Abs 630	1.14 Abs 630
B5	0.51 Abs 630	0.41 Abs 630
B6	0.47 Abs 630	0.36 Abs 630
B7	0.49 Abs 630	0.4 Abs 630
B8	0.5 Abs 630	0.44 Abs 630
B9	0.45 Abs 630	0.36 Abs 630
B10	1.38 Abs 630	0.4 Abs 630
B11	1.77 Abs 630	1.02 Abs 630
B12	0.49 Abs 630	0.54 Abs 630
